Source: article doi:10.1101/2023.01.24.525215

T1: WRKY53 (Arabidopsis thaliana, UniProt Q9SUP6 1-324)
T1 sequence: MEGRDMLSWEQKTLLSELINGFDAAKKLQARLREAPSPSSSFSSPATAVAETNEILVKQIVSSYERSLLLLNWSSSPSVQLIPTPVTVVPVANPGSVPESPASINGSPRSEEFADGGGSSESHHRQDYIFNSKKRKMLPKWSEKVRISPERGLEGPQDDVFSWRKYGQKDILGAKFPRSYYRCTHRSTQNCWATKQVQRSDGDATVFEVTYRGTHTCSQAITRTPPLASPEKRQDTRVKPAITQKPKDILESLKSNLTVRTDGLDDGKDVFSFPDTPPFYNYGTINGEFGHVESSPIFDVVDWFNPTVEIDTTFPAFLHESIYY

T2: TGA5 (Arabidopsis thaliana, UniProt Q39163 1-330)
T2 sequence: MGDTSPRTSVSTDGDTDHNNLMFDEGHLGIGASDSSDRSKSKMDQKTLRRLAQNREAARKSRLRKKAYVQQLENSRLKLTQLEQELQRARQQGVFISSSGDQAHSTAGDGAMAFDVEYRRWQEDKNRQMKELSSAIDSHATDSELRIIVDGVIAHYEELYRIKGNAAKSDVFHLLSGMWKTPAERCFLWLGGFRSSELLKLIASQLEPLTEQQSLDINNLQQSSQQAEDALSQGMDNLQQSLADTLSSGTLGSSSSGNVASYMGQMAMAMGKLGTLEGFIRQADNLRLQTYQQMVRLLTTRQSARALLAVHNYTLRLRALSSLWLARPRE

B1: PDF1.2 as-1 probe (dsDNA)
DNA 1: ATGTTGTATTTGTTCGACGATGACGAAGGT
DNA 2: ACCTTCGTCATCGTCGAACAAATACAACAT
B2: PDF1.2 w-box probe (dsDNA)
DNA 1: ATAATTATTCTTGACTGATGTATGCATATA
DNA 2: TATATGCATACATCAGTCAAGAATAATTAT
B3: PR1 w-box probe (dsDNA)
DNA 1: TTTATTTGAAAATTGACTGTAGATATAAAC
DNA 2: GTTTATATCTACAGTCAATTTTCAAATAAA

Columns and labels:
Assay in all cases: EMSA
WRKY53 = target: T1, WRKY53
TGA5 = target: T2, TGA5
CAM5 = CAM5 (Arabidopsis thaliana, UniProt Q682T9 1-149)

| Binder | binding result (WRKY53) | binding result (TGA5) | binding result (CAM5) |
| --- | --- | --- | --- |
| B1 | no binding | binds |  |
| B2 | binds |  | no binding |
| B3 | binds | binds | no binding |
